According to US20140112930A1 (published 2014):
One block for each binder: values may come before it.

Key:
Human Ang-2FD-hFc = target: T1, Human Ang-2FD-hFc (human); assay: blocking ELISA, 16.67 nM antibody, Ang-2FD-hFc to coated hTie-2-mFc
T1 construct: also called dimeric human Ang-2FD; human Ang-2FD protein conjugated to human IgG

Mouse Ang-2FD-hFc = target: T2, Mouse Ang-2FD-hFc (mouse (Mus musculus)); assay: as above
T2 construct: also called dimeric mouse Ang-2FD

Biotin-hBA2 = target: T3, Biotin-hBA2 (human, biotinylated (sites not given)); assay: blocking ELISA, biotin-hBA2 to hTie-2; NB = no blocking observed at 5 nM concentration
T3 construct: hBA2 consists of two dimers; also called biotinylated hBA2; human bow-Ang2
T3 sequence (chain, as listed by the source limits assumed): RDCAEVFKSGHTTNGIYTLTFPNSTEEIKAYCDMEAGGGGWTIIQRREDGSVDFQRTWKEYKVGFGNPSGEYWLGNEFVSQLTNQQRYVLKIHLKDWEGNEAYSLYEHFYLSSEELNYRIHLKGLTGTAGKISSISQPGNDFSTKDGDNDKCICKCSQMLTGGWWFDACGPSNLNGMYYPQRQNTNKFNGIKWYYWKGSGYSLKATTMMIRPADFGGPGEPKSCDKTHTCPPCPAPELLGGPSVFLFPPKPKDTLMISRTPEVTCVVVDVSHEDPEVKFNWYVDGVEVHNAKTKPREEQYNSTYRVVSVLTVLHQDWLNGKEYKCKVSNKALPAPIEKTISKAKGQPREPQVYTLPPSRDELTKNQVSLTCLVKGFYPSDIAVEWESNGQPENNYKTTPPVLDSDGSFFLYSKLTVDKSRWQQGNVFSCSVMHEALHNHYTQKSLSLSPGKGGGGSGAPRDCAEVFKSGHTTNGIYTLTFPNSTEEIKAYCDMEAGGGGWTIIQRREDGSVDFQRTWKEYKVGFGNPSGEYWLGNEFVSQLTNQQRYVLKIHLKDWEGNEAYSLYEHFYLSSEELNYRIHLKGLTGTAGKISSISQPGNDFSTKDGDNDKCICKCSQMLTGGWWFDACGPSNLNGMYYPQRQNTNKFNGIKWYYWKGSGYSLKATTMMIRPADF
Method: The plate was then blocked with PBS (Irvine Scientific, Santa Ana, Calif.) containing 0.5% BSA (Sigma-Aldrich Corp., St. Louis, Mo.) for one hour at room temperature. […] Human, mouse or monkey Ang-2FD protein conjugated to human IgG (Ang-2FD-hFc) were added to final concentrations of 2 nM, 8 nM, or 2 nM respectively and incubated for one hour at room temperature. The antibody/Ang-2FD-Fc mixture was then added to the plate containing hTie-2-mFc and incubated for one hour at room temperature. Detection of Ang-2FD-hFc bound to hTie-2-mFc protein was determined with Horse-Radish Peroxidase (HRP) conjugated to a-human IgG antibody (Jackson Immuno Research Lab, West Grove, Pa.) and developed by standard colorimetric response using tetramethylbenzidine (TMB) substrate (BD Biosciences, San Jose, Calif.). Absorbance was read at OD₄₅₀ for 0.1 sec.
For this experiment, human Tie-2 conjugated to a histidine tag (hTie-2-His; SEQ ID NO:526) was used in a similar fashion to the hTie-2-mFc described above. Antibody concentrations from 5 nM were serially diluted three-fold. […] An average IC₅₀ value for each antibody was calculated based on two separate experiments.

[1] = target: T4, Dimeric Mouse Ang-2FD conjugated to human IgG1 (mouse (Mus musculus); human); assay: SPR, captured Ab, RT
T4 construct: also called Mouse Ang-2FD-hFc
T4 sequence (chain, as listed by the source limits assumed): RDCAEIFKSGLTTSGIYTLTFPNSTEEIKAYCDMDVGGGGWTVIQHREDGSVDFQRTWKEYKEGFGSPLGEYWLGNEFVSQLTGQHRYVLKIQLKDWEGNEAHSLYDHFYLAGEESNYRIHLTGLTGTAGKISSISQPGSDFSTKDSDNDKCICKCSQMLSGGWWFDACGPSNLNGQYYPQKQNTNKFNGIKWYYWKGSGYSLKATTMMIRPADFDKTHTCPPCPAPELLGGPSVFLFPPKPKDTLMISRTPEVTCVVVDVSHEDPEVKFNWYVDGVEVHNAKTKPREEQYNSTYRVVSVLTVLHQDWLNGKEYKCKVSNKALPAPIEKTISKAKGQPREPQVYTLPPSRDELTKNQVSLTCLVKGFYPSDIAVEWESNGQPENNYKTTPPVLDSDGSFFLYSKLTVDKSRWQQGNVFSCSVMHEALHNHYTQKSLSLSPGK
Method in brief: (§1)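 Antibody captured on amine-coupled goat anti-mouse IgG, anti-human κ or anti-human IgG polyclonal surfaces on a CM5 chip; antigen binding and dissociation followed in real time at room temperature. KD and complex dissociation half-life derived by kinetic analysis.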

[2] = target: T5, Dimeric Human Ang-2FD conjugated to human IgG1 (human); assay: SPR, captured Ab, RT
T5 construct: also called Human Ang-2FD-hFc; hAng-2FD-hFc
T5 sequence (chain, as listed by the source limits assumed): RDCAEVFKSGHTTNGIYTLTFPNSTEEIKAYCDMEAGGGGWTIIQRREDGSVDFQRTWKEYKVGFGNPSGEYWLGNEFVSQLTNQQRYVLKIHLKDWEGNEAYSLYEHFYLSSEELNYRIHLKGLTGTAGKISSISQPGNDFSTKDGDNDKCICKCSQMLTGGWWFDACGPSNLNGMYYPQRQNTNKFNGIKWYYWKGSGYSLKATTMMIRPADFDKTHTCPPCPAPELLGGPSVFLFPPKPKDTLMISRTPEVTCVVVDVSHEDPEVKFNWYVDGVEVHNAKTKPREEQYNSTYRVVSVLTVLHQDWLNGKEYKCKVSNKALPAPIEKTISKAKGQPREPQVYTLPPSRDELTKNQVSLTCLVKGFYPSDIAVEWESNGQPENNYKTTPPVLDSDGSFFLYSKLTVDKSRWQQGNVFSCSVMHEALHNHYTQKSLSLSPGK
Method in brief: as §1

[3] = target: T6, Dimeric Monkey Ang-2FD conjugated to human IgG1 (monkey (Macca fascicularis); human); assay: SPR, captured Ab, RT
T6 construct: also called Monkey Ang-2FD-hFc
T6 sequence (chain, as listed by the source limits assumed): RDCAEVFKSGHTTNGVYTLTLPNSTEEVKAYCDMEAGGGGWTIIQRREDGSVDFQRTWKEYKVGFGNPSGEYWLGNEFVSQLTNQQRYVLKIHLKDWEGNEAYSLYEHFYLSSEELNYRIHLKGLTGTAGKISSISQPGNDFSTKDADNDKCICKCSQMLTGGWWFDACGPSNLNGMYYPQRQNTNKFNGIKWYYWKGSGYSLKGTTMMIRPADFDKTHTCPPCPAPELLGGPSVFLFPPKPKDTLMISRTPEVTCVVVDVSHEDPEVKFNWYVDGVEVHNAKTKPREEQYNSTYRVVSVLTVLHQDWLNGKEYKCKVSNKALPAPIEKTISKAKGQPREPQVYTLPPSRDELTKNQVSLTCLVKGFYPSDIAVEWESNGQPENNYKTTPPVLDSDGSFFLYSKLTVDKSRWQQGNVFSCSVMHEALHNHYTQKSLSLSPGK
Method in brief: as §1

[4] = target: T7, human bow-Ang-2 tetrameric construct (hBA2) (human); assay: SPR, captured Ab
T7 construct: also called human BA2; hBA2-hIgG1

[5] = target: T8, wild-type human Ang-2 (hAng-2-WT) (human, UniProt O15123 19-496); assay: SPR, captured Ab
T8 construct: called full-length wild-type; also called Full-length wild-type human Ang-2
T8 sequence: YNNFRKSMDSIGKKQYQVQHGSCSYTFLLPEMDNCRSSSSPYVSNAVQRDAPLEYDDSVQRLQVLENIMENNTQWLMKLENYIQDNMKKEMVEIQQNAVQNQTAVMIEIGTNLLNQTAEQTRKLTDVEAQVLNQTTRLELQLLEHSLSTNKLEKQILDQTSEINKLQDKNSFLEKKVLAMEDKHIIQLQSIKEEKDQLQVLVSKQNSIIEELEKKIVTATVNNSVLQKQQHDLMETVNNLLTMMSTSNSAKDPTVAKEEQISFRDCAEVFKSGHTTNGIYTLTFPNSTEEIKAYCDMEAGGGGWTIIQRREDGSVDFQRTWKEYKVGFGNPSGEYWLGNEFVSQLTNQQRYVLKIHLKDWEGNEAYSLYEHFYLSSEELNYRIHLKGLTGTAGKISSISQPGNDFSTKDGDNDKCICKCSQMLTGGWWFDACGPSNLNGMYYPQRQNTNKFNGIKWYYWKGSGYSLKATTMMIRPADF

Monomeric hAng-2FD [6] = target: T9, Monomeric hAng-2FD (human, UniProt O15123 282-496); assay: SPR, captured Ab
T9 construct: also called fibrinogen-like domain of human Ang2; Human Ang-2FD
T9 sequence: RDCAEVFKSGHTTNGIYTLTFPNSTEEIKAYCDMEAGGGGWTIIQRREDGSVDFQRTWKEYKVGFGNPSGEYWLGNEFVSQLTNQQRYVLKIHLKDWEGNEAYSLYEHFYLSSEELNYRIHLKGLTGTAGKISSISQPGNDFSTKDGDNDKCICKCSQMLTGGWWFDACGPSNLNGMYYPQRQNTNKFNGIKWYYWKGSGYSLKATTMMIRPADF

[7] = target: T4, Dimeric Mouse Ang-2FD conjugated to …; assay: SPR, captured Ab, 37°C
Method: (§2) Each selected antibody or control construct was captured at a flow rate of 40 μL/min for 1 minute on a goat anti-human kappa polyclonal antibody surface created through direct chemical coupling to a BIACORE™ chip to form a captured antibody surface.

[8] = target: T10, Dimeric Human Ang-2FD-mFc (human, UniProt O15123 282-496); assay: SPR, captured Ab, 37°C
T10 construct: also called hAng-2FD-mFc; hAng2-FD-mFc; not shown: mouse Fc (mFc)
T10 sequence: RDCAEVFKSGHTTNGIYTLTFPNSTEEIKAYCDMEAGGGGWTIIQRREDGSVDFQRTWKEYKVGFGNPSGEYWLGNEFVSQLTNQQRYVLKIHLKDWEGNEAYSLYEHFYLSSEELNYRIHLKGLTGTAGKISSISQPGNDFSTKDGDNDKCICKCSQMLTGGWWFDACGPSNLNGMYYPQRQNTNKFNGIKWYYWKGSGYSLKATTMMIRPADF
Method: as §2

[9] = target: T6, Dimeric Monkey Ang-2FD conjugated to …; assay: SPR, captured Ab, 37°C
Method: as §2

[10] = target: T4, Dimeric Mouse Ang-2FD conjugated to …; assay: SPR, captured Ab, 25°C
Method: as §2

[11] = target: T10, Dimeric Human Ang-2FD-mFc; assay: SPR, captured Ab, 25°C
Method: as §2

[12] = target: T6, Dimeric Monkey Ang-2FD conjugated to …; assay: SPR, captured Ab, 25°C
Method: as §2

[13] = target: T11, Full-length wild-type human Ang-1 (hAng-1-WT) (human, UniProt Q15389 20-498, limits assumed); assay: SPR, captured Ab, 37°C
T11 construct: also called recombinant human Ang-1 (R&D Systems)
T11 sequence (looked up): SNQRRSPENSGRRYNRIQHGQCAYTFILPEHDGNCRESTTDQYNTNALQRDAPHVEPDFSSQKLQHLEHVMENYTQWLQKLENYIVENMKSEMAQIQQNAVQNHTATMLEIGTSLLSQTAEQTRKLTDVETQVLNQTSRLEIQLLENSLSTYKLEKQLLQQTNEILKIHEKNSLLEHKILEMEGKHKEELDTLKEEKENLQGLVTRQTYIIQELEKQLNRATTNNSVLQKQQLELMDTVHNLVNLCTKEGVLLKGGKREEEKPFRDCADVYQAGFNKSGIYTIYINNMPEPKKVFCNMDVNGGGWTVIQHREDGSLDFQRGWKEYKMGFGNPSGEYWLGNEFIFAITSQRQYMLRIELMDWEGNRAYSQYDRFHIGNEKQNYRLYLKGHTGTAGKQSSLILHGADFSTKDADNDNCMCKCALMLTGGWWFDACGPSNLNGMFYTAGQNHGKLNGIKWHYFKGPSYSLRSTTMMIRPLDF
Method: (§3) Each selected antibody or control construct was captured at a flow rate of 40 μL/min for 1 minute on a goat anti-human IgG polyclonal antibody surface created through direct chemical coupling to a BIACORE™ chip to form a captured antibody surface.

[14] = target: T8, wild-type human Ang-2 (hAng-2-WT); assay: SPR, captured Ab, 37°C
Method: as §3

Monomeric hAng-2FD [15] = target: T9, Monomeric hAng-2FD; assay: SPR, captured Ab, 37°C
Method: as §3

[16] = target: T11, Full-length wild-type human Ang-1 …; assay: SPR, captured Ab, 25°C
Method: as §3

[17] = target: T8, wild-type human Ang-2 (hAng-2-WT); assay: SPR, captured Ab, 25°C
Method: as §3

Monomeric hAng-2FD [18] = target: T9, Monomeric hAng-2FD; assay: SPR, captured Ab, 25°C
Method: as §3

Percent Blocking of Ang-2FD Binding to Tie-2 (Human Ang-2FD-hFc): 73.9%
Percent Blocking of Ang-2FD Binding to Tie-2 (Mouse Ang-2FD-hFc): 63.6%
IC50 (Biotin-hBA2): > 5 nM
B1: H1H693P (antibody, human IgG1, V domains shown)
VH: EVQLVESGGGLVQPGESLRLSCAASGFTFSSYAMSWVRQGPGKGLEWVSSISGSGGTTYYADSVEGRFTISRDNSKNTLYLHMNSLRAEDTAVYYCAKDFLDYSTYLAFDLWGQGTMVTVSS
VL: DIQMTQSPSSVSASVGDRVTITCRASQGISSWLAWYQQKPGKAPKLLIYAASSLQSGVPSRFSGSGSGTDFTLTISSLQPEDFATYYCQQANSFPRTFGQGTKVEIK
notes: Human IgG1

T1/2 [1]: 1.92 h
Kd [2]: 0.114 nM
T1/2 [2]: 2.12 h
Kd [3]: 0.346 nM
T1/2 [3]: 2.73 h
Kd [4]: 0.0172 nM
T1/2 [4]: 7.37 h
Kd [5]: 0.0308 nM
T1/2 [5]: 13.9 h
Kd (Monomeric hAng-2FD [6]): 1.02 nM
T1/2 (Monomeric hAng-2FD [6]): 0.702 h
Kd [7]: 0.215 nM
T1/2 [7]: 0.433 h
Kd [8]: 0.105 nM
T1/2 [8]: 0.3 h
Kd [9]: 0.32 nM
T1/2 [9]: 0.183 h
Kd [10]: 0.385 nM
T1/2 [10]: 0.55 h
Kd [11]: 0.116 nM
T1/2 [11]: 0.383 h
Kd [12]: 0.244 nM
T1/2 [12]: 0.4 h
Kd [13]: 0.0312 nM
T ½ [13]: 3.7 h
Kd [14]: 0.347 nM
T ½ [14]: 0.8 h
Kd (Monomeric hAng-2FD [15]): 1.42 nM
T ½ (Monomeric hAng-2FD [15]): 0.35 h
Kd [16]: 0.093 nM
T ½ [16]: 5.05 h
Kd [17]: 0.0335 nM
T ½ [17]: 7.5 h
Kd (Monomeric hAng-2FD [18]): 0.424 nM
T ½ (Monomeric hAng-2FD [18]): 1.55 h
B2: H1H744N (antibody, V domains shown)
VH: QVQLVQSGVEVKKPGASVKVSCKTSGYTFSNNGFSWVRQAPGQGLEWLGWISGYNGNTNYAQKFQGRVTMTTDTSTSTAYMELRTLRSDDTAVYYCARDQDYSNFHWLDPWGQGTLVTVAS
VL: DIQMTQSPSSVSASVGDRVIITCRASQGLSSWLAWYQQKPGTAPKLLIHSASSLQTGVPSRFSGSGSGTEFALTINSLQPEDFGTYYCQQANSFPLTFGGGTRVEIK
